Target: human neonatal Fc receptor (FcRn) (human) (UniProt P55899)
Experiment: SPR (Biacore T200), FcRn amine-coupled to CM5 chip, antibody as analyte, steady state fit, pH 6.0

Row | Kd | Substance
1 | 3250 nM | Irrelevant IgG4 (antibody)
2 | 2370 nM | Irrelevant IgG1 (antibody)

Source: patent US20220380482A1
